# Target: Chikungunya virus nonstructural protein 1 (nsP1) capping pore (Chikungunya virus)
# Test: cryo-EM structure
substance,measurement,value
Chikungunya virus nonstructural protein 1 (nsP1) capping pore (enzyme),stoichiometry N,12
